Publication PMC12027964, “Centrifugation-Based Purification Protocol Optimization Enhances Structural Preservation of Nucleopolyhedrovirus Budded Virion Envelopes” (Insects, 2025)

Biological target: the molecule itself
Assay: cryo-EM structure; GP64 solubilised from purified BV particles with DDM/CHS, SEC fraction B in TN buffer (50 mM Tris-HCl pH 8, 150 mM NaCl) with 0.02% DDM and 0.002% CHS, about 1 mg/mL; single-particle reconstruction (7913 particles, 15 Å); prefusion GP64 model PDB 8YG6 fitted into the map

B1: GP64 envelope fusion protein of Autographa californica multiple nucleopolyhedrovirus (AcMNPV) (natural protein)
chain: AEHCNAQMKTGPYKIKNLDITPPKETLQKDVEITIVETDYNENVIIGYKGYYQAYAYNGGSLDPNTRVEETMKTLNVGKEDLLMWSIRQQCEVGEELIDRWGSDSDDCFRDNEGRGQWVKGKELVKRQNNNHFAHHTCNKSWRCGISTSKMYSRLECQDDTDECQVYILDAEGNPINVTVDTVLHRDGVSMILKQKSTFTTRQIKAACLLIKDDKNNPESVTREHCLIDNDIYDLSKNTWNCKFNRCIKRKVEHRVKKRPPTWRHNVRAKYTEGDTATKGDLMHIQEELMYENDLLKMNIELMHAHINKLNNMLHDLIVSVAKVDERLIGNLMNNSVSSTFLSDDTFLLMPCTNPPAHTSNCYNNSIYKEGRWVANTDSSQCIDFSNYKELAIDDDVEFWIPTIGNTTYHDSWKDASGWSFIAQQKSNLITTMENTKFGGVGTSLSDITSMAEGELAAKLTSFMFGHVVNFVIILIVILFLYCMIRNRNRQY
notes: Native viral protein, no tag; also called prefusion GP64; Frac B; source: purified from recombinant AcMNPV budded virions produced in Sf9 cells (1% DDM / 0.1% CHS extraction, Superdex 200 SEC)
stoichiometry N: 3
